The target of the assay is recombinant human calmodulin (human), P0DP23. In words: ITC. The following applies: remark: other sources report otherwise.

B1: CaMBP1 peptide of zebrafish STRA6 (peptide)
peptide: Ac-SQSHPVMKAFCGLLLQSS-NH2
One may read the Kd as the free concentration of one partner at which half of the binding sites on the other are occupied at equilibrium, for simple one-to-one binding. The term stoichiometry N denotes the number of molecules, sites or subunits per partner or assembly. For the molecule B1, the Kd is 1680 nM, the dH was -7.3 kcal/mol and the stoichiometry N was 0.99 sites.
